Data as given in patent US20240400614A1, “CLEAVABLE PEPTIDES AND METHODS OF USE THEREOF” (Bright Peak Therapeutics AG, priority 2023, published 2024).
Square brackets hold non-standard residues; d marks the D form. Ends that are not written are not given here. Tyr(3-NO2) = N[C@@H](Cc1ccc(O)c([N+](=O)[O-])c1)C(=O)O; 2Abz = Nc1ccccc1C(=O)O

Tests used:
Assay type in all cases: biochemical
matriptase = molecular target: T1, matriptase (Homo sapiens, UniProt Q9Y5Y6); assay: FRET peptide cleavage efficiency with matriptase
T1 construct: purchased R&D Systems 3946-SEB
T1 sequence (Q9Y5Y6 615-855 limits assumed): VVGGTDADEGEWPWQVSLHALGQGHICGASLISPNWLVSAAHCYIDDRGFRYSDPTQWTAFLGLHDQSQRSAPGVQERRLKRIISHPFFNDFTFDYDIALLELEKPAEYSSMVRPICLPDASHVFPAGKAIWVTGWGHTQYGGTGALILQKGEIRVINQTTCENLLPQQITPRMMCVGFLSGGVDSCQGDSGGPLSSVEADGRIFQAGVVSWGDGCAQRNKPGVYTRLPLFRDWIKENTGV

uPA = uPA (Homo sapiens, UniProt P00749); assay: FRET peptide cleavage efficiency with uPA
MMP-7 = molecular target: T2, MMP-7 (Homo sapiens, UniProt P09237); assay: FRET peptide cleavage efficiency with MMP-7 (standard pH 7.5; also pH 6.5)
T2 construct: purchased SIGMA CC1059
T2 sequence (P09237 95-267): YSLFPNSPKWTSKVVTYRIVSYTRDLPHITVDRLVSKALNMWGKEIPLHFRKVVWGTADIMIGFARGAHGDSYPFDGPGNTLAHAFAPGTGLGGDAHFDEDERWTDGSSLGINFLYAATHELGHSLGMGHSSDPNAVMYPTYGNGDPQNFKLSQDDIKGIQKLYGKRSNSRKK

MMP-9 = molecular target: T3, MMP-9 (Homo sapiens, UniProt P14780); assay: FRET peptide cleavage efficiency with MMP-9 (standard pH 7.5; also pH 6.5)
T3 construct: purchased SIGMA PF024

MMP-2 = molecular target: T4, MMP-2 (Homo sapiens, UniProt P08253); assay: FRET peptide cleavage efficiency with MMP-2
T4 construct: purchased SIGMA PF023
T4 sequence (P08253 110-660): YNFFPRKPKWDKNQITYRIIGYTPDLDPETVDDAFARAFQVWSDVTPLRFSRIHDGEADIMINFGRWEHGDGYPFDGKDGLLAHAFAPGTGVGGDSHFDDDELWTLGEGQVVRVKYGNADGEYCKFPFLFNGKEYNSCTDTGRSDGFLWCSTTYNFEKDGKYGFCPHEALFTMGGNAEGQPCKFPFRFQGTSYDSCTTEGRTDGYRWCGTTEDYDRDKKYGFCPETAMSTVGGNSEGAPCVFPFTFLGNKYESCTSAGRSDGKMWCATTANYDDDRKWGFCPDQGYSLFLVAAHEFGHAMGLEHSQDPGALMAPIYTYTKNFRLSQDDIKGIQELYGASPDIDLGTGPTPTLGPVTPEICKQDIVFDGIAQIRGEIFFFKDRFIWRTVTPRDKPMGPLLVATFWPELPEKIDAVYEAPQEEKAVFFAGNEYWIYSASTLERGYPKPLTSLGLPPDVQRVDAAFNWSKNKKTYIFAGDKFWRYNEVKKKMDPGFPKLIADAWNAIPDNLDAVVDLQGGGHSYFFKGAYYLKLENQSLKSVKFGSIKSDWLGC

[1] = t = 15 min, 200 uM linker, 1 ug/ml protease, 37° C., buffer B pH 9.0
[2] = t = 60 min, 200 uM linker, 1 ug/ml protease, 37° C., buffer B pH 9.0
[3] = 200 uM linker, 1 ug/ml protease, 37° C., buffer B pH 9.0
[4] = t = 15 min, 200 uM linker, 1 ug/ml protease, 37° C., buffer A pH 8.5
[5] = t = 60 min, 200 uM linker, 1 ug/ml protease, 37° C., buffer A pH 8.5
[6] = t = 120 min, 200 uM linker, 1 ug/ml protease, 37° C., buffer A pH 8.5
[7] = t = 15 min, 200 uM linker, 1 ug/ml protease, 37° C., buffer C pH 7.5
[8] = t = 60 min, 200 uM linker, 1 ug/ml protease, 37° C., buffer C pH 7.5
[9] = t = 120 min, 200 uM linker, 1 ug/ml protease, 37° C., buffer C pH 7.5
[10] = t = 15 min, standard conditions (Table 8)
[11] = t = 60 min, standard conditions (Table 8)
[12] = t = 120 min, standard conditions (Table 8)

T3 sequence (P14780 94-707): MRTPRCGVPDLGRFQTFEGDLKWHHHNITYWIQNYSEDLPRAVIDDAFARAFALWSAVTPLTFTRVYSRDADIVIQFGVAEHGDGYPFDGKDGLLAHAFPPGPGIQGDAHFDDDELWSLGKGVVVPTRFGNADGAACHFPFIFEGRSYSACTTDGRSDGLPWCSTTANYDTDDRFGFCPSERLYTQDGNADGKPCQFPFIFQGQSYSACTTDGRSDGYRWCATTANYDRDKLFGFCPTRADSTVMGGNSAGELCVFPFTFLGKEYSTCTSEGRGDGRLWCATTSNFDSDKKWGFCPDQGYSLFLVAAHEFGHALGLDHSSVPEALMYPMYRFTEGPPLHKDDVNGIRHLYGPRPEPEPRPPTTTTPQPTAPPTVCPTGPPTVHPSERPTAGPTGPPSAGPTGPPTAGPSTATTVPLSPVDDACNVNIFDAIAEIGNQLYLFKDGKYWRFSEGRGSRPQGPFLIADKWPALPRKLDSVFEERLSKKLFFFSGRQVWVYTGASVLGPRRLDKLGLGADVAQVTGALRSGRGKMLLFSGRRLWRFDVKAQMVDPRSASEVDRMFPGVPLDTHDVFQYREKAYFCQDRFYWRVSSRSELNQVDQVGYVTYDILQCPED

| Sequence | % cleavage Matriptase t = 15 min (matriptase; pH 6.5, t = 15 min (Table 7)) | % cleavage Matriptase t = 60 min (matriptase; pH 6.5, t = 60 min (Table 7)) | % cleavage Matriptase t = 15 min (matriptase; [1]) | % cleavage Matriptase t = 60 min (matriptase; [2]) | % cleavage Matriptase t = 120 min (matriptase; [3]) | % cleavage uPA t = 15 min (uPA; [4]) | % cleavage uPA t = 60 min (uPA; [5]) | % cleavage uPA t = 120 min (uPA; [6]) | % cleavage MMP-7 t = 15 min (MMP-7; t = 15 min (Table 9)) | % cleavage MMP-7 t = 60 min (MMP-7; t = 60 min (Table 9)) | % cleavage MMP-7 t = 120 min (MMP-7; t = 120 min (Table 9)) | % cleavage MMP-9 t = 15 min (MMP-9; t = 15 min (Table 9)) | % cleavage MMP-9 t = 60 min (MMP-9; t = 60 min (Table 9)) | % cleavage MMP-9 t = 120 min (MMP-9; t = 120 min (Table 9)) | % cleavage MMP-2 t = 15 min (MMP-2; t = 15 min (Table 9)) | % cleavage MMP-2 t = 15 min (MMP-2; [7]) | % cleavage MMP-2 t = 60 min (MMP-2; t = 60 min (Table 9)) | % cleavage MMP-2 t = 60 min (MMP-2; [8]) | % cleavage MMP-2 t = 120 min (MMP-2; t = 120 min (Table 9)) | % cleavage MMP-2 t = 120 min (MMP-2; [9]) | also measured |
| --- | --- | --- | --- | --- | --- | --- | --- | --- | --- | --- | --- | --- | --- | --- | --- | --- | --- | --- | --- | --- | --- |
| SSRGPYMLQG ([2Abz]SSRGPYMLQG[Tyr(3-NO2)]-NH2) [LNK022] | 0% | 0% | 8% | 9% | 11% | 0% | 1% | 3% | 40% | 0% | 100% | 63% | 99% | 100% | 27% | 31% | 79% | 81% | 94% | 96% | % cleavage Matriptase t = 15 min (matriptase; pH 7.5, t = 15 min (Table 7)): 0%; % cleavage Matriptase t = 60 min (matriptase; pH 7.5, t = 60 min (Table 7)): 0%; % cleavage uPA t = 60 min (uPA; pH 6.5, t = 60 min (Table 7)): 0%; % cleavage uPA t = 120 min (uPA; pH 6.5, t = 120 min (Table 7)): 0%; % cleavage uPA t = 60 min (uPA; pH 7.5, t = 60 min (Table 7)): 0%; % cleavage uPA t = 120 min (uPA; pH 7.5, t = 120 min (Table 7)): 0%; % cleavage MMP-2 t = 15 min (MMP-2; pH 6.5, t = 15 min (Table 7)): 32%; % cleavage MMP-2 t = 60 min (MMP-2; pH 6.5, t = 60 min (Table 7)): 74%; % cleavage MMP-2 t = 15 min (MMP-2; pH 7.5, t = 15 min (Table 7)): 36%; % cleavage MMP-2 t = 60 min (MMP-2; pH 7.5, t = 60 min (Table 7)): 84% |
| RGRKPYMLQG ([2Abz]RGRKPYMLQG[Tyr(3-NO2)]-NH2) [LNK035] |  |  |  |  |  |  |  |  | 28% | 80% | 95% | 42% | 100% | 100% | 33% |  | 77% |  | 91% |  | % cleavage Matriptase t = 15 min (matriptase; [10]): 67%; % cleavage Matriptase t = 60 min (matriptase; [11]): 100%; % cleavage Matriptase t = 120 min (matriptase; standard conditions (Table 8)): 100%; % vcleavage uPA t = 15 min (uPA; [10]): 0%; % cleavage uPA t = 60 min (uPA; [11]): 0%; % cleavage uPA t = 120 min (uPA; [12]): 0%; % cleavage MMP-7 t = 15 min (MMP-7; [10]): 28%; % cleavage MMP-7 t = 60 min (MMP-7; [11]): 80%; % cleavage MMP-7 t = 120 min (MMP-7; [12]): 95%; % cleavage MMP-9 t = 15 min (MMP-9; [10]): 42%; % cleavage MMP-9 t = 60 min (MMP-9; [11]): 100%; % cleavage MMP-9 t = 120 min (MMP-9; [12]): 100%; % cleavage MMP-2 t = 60 min (MMP-2; [11]): 77%; % cleavage MMP-2 t = 120 min (MMP-2; [12]): 91% |
| RGRRPLGLAG ([2Abz]RGRRPLGLAG[Tyr(3-NO2)]-NH2) [LNK049] |  |  | 16% | 70% | 100% | 0% | 0% | 0% | 1% | 4% | 8% | 56% | 100% | 100% | 89% | 89% | 100% | 100% | 100% | 100% |  |
| SSRGRRGPYMLQG ([2Abz]SSRGRRGPYMLQG[Tyr(3-NO2)]-NH2) [LNK021] | 100% | 100% | 100% | 100% | 100% | 5% | 16% | 27% | 22% | 69% | 83% | 60% | 98% | 100% | 20% | 23% | 64% | 66% | 100% | 88% | % cleavage Matriptase t = 15 min (matriptase; pH 7.5, t = 15 min (Table 7)): 100%; % cleavage Matriptase t = 60 min (matriptase; pH 7.5, t = 60 min (Table 7)): 100%; % cleavage uPA t = 60 min (uPA; pH 6.5, t = 60 min (Table 7)): 0%; % cleavage uPA t = 120 min (uPA; pH 6.5, t = 120 min (Table 7)): 0%; % cleavage uPA t = 60 min (uPA; pH 7.5, t = 60 min (Table 7)): 10%; % cleavage uPA t = 120 min (uPA; pH 7.5, t = 120 min (Table 7)): 19%; % cleavage MMP-2 t = 15 min (MMP-2; pH 6.5, t = 15 min (Table 7)): 26%; % cleavage MMP-2 t = 60 min (MMP-2; pH 6.5, t = 60 min (Table 7)): 64%; % cleavage MMP-2 t = 15 min (MMP-2; pH 7.5, t = 15 min (Table 7)): 24%; % cleavage MMP-2 t = 60 min (MMP-2; pH 7.5, t = 60 min (Table 7)): 64% |
| RGRRSGRAANLVRPLGYFGKL ([2Abz]RGRRSGRAANLVRPLGYFGKL[Tyr(3-NO2)]-NH2) [LNK059] |  |  | 76% | 100% | 100% | 67% | 100% | 100% | 0% | 0% | 0% | 39% | 100% | 100% | 77% | 77% | 100% | 100% | 100% | 100% |  |
